Common to all, as to test: cAMP activity assay (pCRE β-galactosidase reporter), transfected HEK293T cells
Type in all cases: cell-based

One assay deals with T1, RXFP1 Y58A (Homo sapiens, UniProt Q9HBX9, Y80A).
T1 construct: cells expressing full-length RXFP1 and mutants; expressed in transfected cells; host or cells: HEK293T
T1 sequence (Q9HBX9 23-757 Y80A limits assumed): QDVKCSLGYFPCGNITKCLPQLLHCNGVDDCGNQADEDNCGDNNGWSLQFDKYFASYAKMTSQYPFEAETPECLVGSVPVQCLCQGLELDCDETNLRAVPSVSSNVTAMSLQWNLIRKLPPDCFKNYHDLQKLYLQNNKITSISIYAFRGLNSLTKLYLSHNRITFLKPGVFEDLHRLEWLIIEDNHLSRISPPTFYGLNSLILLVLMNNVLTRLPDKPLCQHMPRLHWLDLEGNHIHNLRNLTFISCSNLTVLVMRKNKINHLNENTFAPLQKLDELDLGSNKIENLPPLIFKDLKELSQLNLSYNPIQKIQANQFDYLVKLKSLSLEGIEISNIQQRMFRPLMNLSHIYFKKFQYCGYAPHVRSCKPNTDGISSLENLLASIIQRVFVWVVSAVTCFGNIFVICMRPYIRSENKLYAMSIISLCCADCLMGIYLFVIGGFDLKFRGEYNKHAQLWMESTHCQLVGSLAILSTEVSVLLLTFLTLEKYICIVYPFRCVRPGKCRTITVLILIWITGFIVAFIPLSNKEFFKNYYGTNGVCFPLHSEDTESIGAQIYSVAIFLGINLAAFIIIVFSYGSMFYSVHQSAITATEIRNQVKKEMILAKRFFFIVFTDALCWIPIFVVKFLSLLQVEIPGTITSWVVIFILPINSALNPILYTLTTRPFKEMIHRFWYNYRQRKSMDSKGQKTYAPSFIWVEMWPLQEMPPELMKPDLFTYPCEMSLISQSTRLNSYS
The conditions noted are these: construct Y58A, ±s.e.m. The method in brief: (§1)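 Absorbance at 570 nm from β-galactosidase cleavage of chlorophenol red-β-D-galactopyranoside, expressed as percentage of the maximal 5 μM Forskolin response (mean ± s.e.m., ≥3 experiments in triplicate). Stimulant was H2 relaxin in minimal media containing 1% DMSO.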

For the next assay, the target named is T2, RXFP1 F54A/Y58A (Homo sapiens, UniProt Q9HBX9, F76A/Y80A).
T2 construct: cells expressing full-length RXFP1 and mutants; expressed in transfected cells; host or cells: HEK293T
T2 sequence (Q9HBX9 23-757 F76A/Y80A limits assumed): T1 sequence (Q9HBX9 23-757 Y80A limits assumed) with F54A
As to conditions: construct F54A/Y58A, ±s.e.m. The gist of the method: as §1

The next assay addresses T3, RXFP1 G45A (Homo sapiens, UniProt Q9HBX9, G67A).
T3 construct: transiently transfected human embryonic kidney (HEK) 293T cells expressing full-length RXFP1 and mutants; expressed in transfected cells; host or cells: HEK293T
T3 sequence (Q9HBX9 23-757 G67A limits assumed): T1 sequence (Q9HBX9 23-757 Y80A limits assumed) with G45A, A58Y
As to conditions: construct G45A, ±s.e.m. The gist of the method:
as §1

Where [1] appears, read: percentage of maximum response to 5 μM Forskolin.

These results are taken from PMC4837482, “The complex binding mode of the peptide hormone H2 relaxin to its receptor RXFP1” (Nature Communications, 2016).

Residue numbers refer to the chain shown, from its start.

Consider “H2 relaxin: two-chain 6-kDa peptide hormone structurally related to insulin; recombinant human gene-2 H2 relaxin provided by Corthera”, for which the “H2 relaxin pEC50” value in the assay with RXFP1 Y58A (cAMP reporter) is listed as 10.88±0.09 (3); with RXFP1 F54A/Y58A (cAMP reporter), 9.87±0.08 (5)***^,#,θ; with RXFP1 G45A (cAMP reporter) it was 7.48±0.57 (4). In addition, the entries for the “H2 relaxin Emax” value with RXFP1 Y58A (setting [1]), with RXFP1 F54A/Y58A (setting [1]) and with RXFP1 G45A (setting [1]) were 89.14±7.93 (3) %, 99.94±2.19 (5) % and 135.94±31.68 (4) %, respectively.
